Target: S. pombe histones H3−H4 (S. pombe, UniProt P09988 1-136; P09322 1-103)
Assay: SEC

binding result: binds
B1: SpCAF-1 complex (Pcf1-Pcf2-Pcf3), wild type, full length (complex, S. pombe)
chain 1: MNSESVDSDVAASTSNKGNELCSSSTDITSLSVSSPNESVIHSSHSASEADEYVCKLSYEGNRKKRIYNGSAEAGKEKKLQKQRAQEERIRQKEAERLKREKERQQREQEKKLREQEKIAAKKMKELEKLEKERIRLQEQQRRKEERDQKLREKEEAQRLRQEQILNKERQQLKLNNFFTKGVEKRIAPNENFVADKTDELNEFEKEFRPFFIKHQMSLSKYPSPNESDSFLDEVLSTSKSYPLKLNDIFTPSDAVSSANSLGVSNRNSENEVRQLMSAYQDPSVSKPQEILSCLSQIPIKFIFFYQDVRPPYFGSYTKTHSHGSNVLLNPWLEDEDIDYTYDSEAEWVADEEDDGEDLESEDEEVDNSDDIVEDGDNAFVDDEDDDKDSVNASNTHRSSGPLEVIVEGPVWDSKFLPDFNCLSLIEPISSFSASTYLQIDPKEDLWASQDTAPASSGMTIGPTSSLSDDLQVRFPSEDIPKFIEYVRNSHDNKVFLIENLRHMFPYVTKNIISETLGKVAVRKGKSVSDGWIIKENFASLLSS
chain 2: MRAEVLQIRWHYDANDDHTPIYSVDFQKNSLNKFATCGGDSKIRIWQLITSESSTKVEYLSTLSRHTQAVNVVRFNPEGNILATAGDEGTIMLWVPTNTPITTLADDAEELALAKEYWKVKIVCRSMGSEIYDLCWSVDSNFLIAGAMDNSLRLYDAHTGQLLTQKFDHSHYVQGVCWDPLNQYIVSESSDRSICLYEIQEEKKNPKKFQLVLKSRICRIEYNVTKFELISVTKPLNNDESSGISEPIETSNNNESPVSKHEALSSTANIVKDGSLERTEPPNSLNSKISYSLYCNETLVSFFRRPAFSPDGLLLVTPAGRLRPHGQPNFEVPYTAYIYTRGSITKQPVACLNGFKKPVIAVRFSPIHYELNSFSNFSFTSVSFNLPYRMVFAVACQDAVYIYDTQTCKPFYRAVNLHYSNLTDIAWNDDGNVLLMTSIDGFCSVITFEPGELGVKSQHKISLPEKRSASPSSIDDSQDNTAGGPATTTLIPRKVESSKVSKKRIAPTPVYP
chain 3: MNTELDMQNFEHIKFLENQISEDHFRWKKNSKHLYNLLITRTLTWPSLSIQWLSAMESITEKAVLKNRLLLGTHAAEGMPNFLQLADLDLPDFNQTILDPVKHYNEDTGELGGYSMQHSCKFQISQRILHNGDVNRVRHMPQNPNIIATMSSCGNAYIFDRTKYTSMPAEEFLPNISLIGHKKEGFGLSWNRQQNCRLVTAANDSKILEWDLNNFSRDTRCLTPVKDFHYDDSPVNDVEYHPHHTNLYIAVNDNGIAFICDNRLQQTCSKTVKASNPLFSVRHNPSIATLFALGSEQDLQLWDLRNLNKSVFNTSEDLSDNRLKVPSRLTLGGTSLSWSWRHSGRIVSACQEYCYVWNFNKANPLEFVHAGHKGTVNEVDFDPFEAQCIASVADDNELHIWKPNVIVN

Reference: PMC10942606 (eLife, 2023)
